Tests used:
[1] = biological target: T1, human PD-L1 on cells (PHA-activated human T cells); PD-L1-transfected CHO-S cells; A375 melanoma cells; … (human, UniProt Q9NZQ7 19-290); test: flow cytometry blocking assay: PD-L1 expressing CHO-S cells incubated with antibody, then biotin-labeled PD-1-Fc and streptavidin-PE; MFI of bound PD-1
T1 construct: whole, on cells; also called PD-L1 expressing T cells; PD-L1 expressing CHO-S cells
Experimental: PD-L1 expressing CHO-S cells were suspended in FACS buffer (PBS with 4% FBS). Various concentrations of tested antibodies were added to the cell suspension (3.5E5 cells/well) and incubated at 4° C. for 30 minutes. […] The cells were washed and then stained with streptavidin-PE at 4° C. for 30 minutes. Flow cytometric analyses were performed using the Cytomics FC 500 (Beckman Coulter Inc.).
Anti-PD-L1 reference antibody and Avastin were used as the positive and negative control, respectively.

[2] = biological target: T1, human PD-L1 on cells (PHA-activated …); test: flow cytometry on PHA-activated human T cells, biotin-labeled anti-human IgG Fcγ and streptavidin-PE, MFI
[3] = biological target: T1, human PD-L1 on cells (PHA-activated …); test: flow cytometry on A375 human melanoma cells, biotin-labeled anti-human IgG Fcγ and streptavidin-PE, MFI
[4] = biological target: T1, human PD-L1 on cells (PHA-activated …); test: flow cytometry on PHA-activated human CD3+ T cells, FITC-labeled anti-human IgG Fcγ, MFI
Experimental: Human T cells were isolated from PBMC using MagniSortTM Human T Cell Enrichment Kit (eBioscience). Isolated T cells were activated by 5 μg/mL phytohemagglutinin (PHA) for 3 days to stimulate the PD-L1 expression. Activated T cells were collected and incubated in FACS buffer (PBS with 2% FBS) with human Fc blocker (eBioscience) for 20 minutes at 4° C. Binding of anti-PD-L1 monoclonal antibody was assessed by incubating the activated T cells with the serial-diluted antibodies in FACS buffer. The cells were washed with flow buffer and the binding was detected with a FITC-labeled rabbit anti-human IgG FcγAb. Cells were also stained with mouse anti-human CD3 PE-Cy7 (eBioscience) for gating CD3-positive T cells. Flow cytometric analyses were performed using the Cytomics FC 500 (Beckman Coulter Inc.).

[5] = biological target: T1, human PD-L1 on cells (PHA-activated …); test: flow cytometry on NCI-H292 human NSCLC cells, biotin-labeled anti-human IgG Fcγ and streptavidin-PE, MFI
human PD-L1 ECD-His [6] = biological target: T2, human PD-L1 ECD-His (human, UniProt Q9NZQ7 19-238); test: BLI Octet RED96, biotinylated antibody on SA sensor, hPD-L1-His analyte, 1:1 fit
T2 construct: extracellular domain; Analyte in all SPR and BLI runs; also called hPD-L1_ECD-His; hPD-L1 ECD-His; not shown: His tag
Experimental: (§1) Briefly, black 96-well plate was prepared with columns containing 200 μL/well of reagents required for determination of affinity. In general, Octet SA sensors were first placed in wells containing 1×Kinetics Buffer (PBS, 0.1% BSA, 0.02% Tween-20, pH 7.4) for 180 seconds to establish a baseline. […] Sensors were then regenerated by 3×5 second incubations in Regeneration Buffer (10 mM Glycine, pH 1.5) followed by a 5 second incubation in 1×Kinetics Buffer each time. Regeneration was repeated before measurement of each association/dissociation cycle. Sensors were then placed in fresh 1×Kinetics Buffer for 180 seconds to establish a baseline. Association was then measured by incubating the sensors for 5 minutes in wells containing hPD-L1-His followed by transferring to wells containing 1×Kinetics Buffer for 10 minutes to measure dissociation. Kinetics (ka, kd, and […] were measured by global fitting four association/dissociation cycles of data obtained from 1:3 serial dilutions of hPD-L1-His from 38.28 nM to 1.42 nM (one association/dissociation cycle for one concentration) with a 1:1 Langmuir binding model. All data were analyzed with Octet Data Analysis Software v.9.0 and representative of two independent experiments performed in duplicate.
(§2) All the data are representative of two independent experiments performed in duplicate.

human PD-L1 ECD-His [7] = biological target: T2, human PD-L1 ECD-His; test: BLI, ratio of KD to ref-1
Experimental: as §1, §2

human PD-L1 ECD-His [8] = biological target: T2, human PD-L1 ECD-His; test: SPR, hPD-L1-His, comparison of IgG isotypes of PL2#3
[9] = biological target: T3, recombinant cynomolgus monkey PD-L1_ECD Fc-fusion protein (Sino Biological Inc.) (cynomolgus monkey, UniProt G7PSE7 19-238); test: ELISA: cynomolgus monkey PD-L1_ECD/Fc coated (9 ng/well), peroxidase-labeled goat anti-human IgG F(ab)'2, TMB, OD450
T3 construct: Bought
Experimental: The recombinant cynomolgus monkey PD-L1_ECD Fc-fusion proteins were purchased from Sino Biological Inc. PD-L1_ECD/Fc (9 ng per well) were immobilized onto 96-well assay plat by incubating overnight at 4° C. Nonspecific binding sites were blocked using 5% skim milk in PBS for one hour at room temperature. After washing plates three times with PBST, indicated concentrations of anti-PD-L1 antibodies and HLX01 (negative control) were incubated with the immobilized proteins for one hour at room temperature. The plates were washed three times with PBST and then incubated for one hour at room temperature with peroxidase-labeled goat anti-human IgG F(ab)′2 (Jackson ImmunoResearch Laboratories) diluted 1/10,000 in PBS. After washing, plates were developed using TMB (eBioscience). The absorbance was read at the wavelength of 450 nm by Varioskan LUX microplate reader (Thermo Scientific).
HLX01 (anti-CD20 mAb) was used as the negative control.

[10] = biological target: T4, mouse PD-L1 on B16-F10 melanoma cells (mouse, UniProt Q9EP73 19-290); test: flow cytometry on mouse PD-L1 expressing B16-F10 melanoma cells, FITC-labeled anti-human IgG Fcγ, MFI
T4 construct: whole, on cells

human PD-L1 ECD-His [11] = biological target: T2, human PD-L1 ECD-His; test: SPR, ratio of KD to ref-1
[12] = biological target: T1, human PD-L1 on cells (PHA-activated …); test: flow cytometry on PD-L1 transfected CHO-S cells, anti-human IgG Fc-FITC, MFI
Experimental: Binding of tested de-glycosylated variants was assessed by incubating the PD-L1 expressing CHO-S cells (2E5 cells/well) with the serial-diluted antibodies in FACS buffer (PBS with 1% FBS) at 4° C. for 30 minutes. These cells were washed with flow buffer and then stained with anti-human IgG Fc-FITC (1:500×) at 4° C. for 30 minutes to detect antibody binding on the cell surface. Flow cytometric analyses were performed using CytoFlex (Beckman Coulter Inc.).

human PD-L1 ECD-His [13] = biological target: T2, human PD-L1 ECD-His; test: BLI Octet RED96, antibody on AHC anti-human-Fc sensor, hPD-L1-His analyte, 1:1 fit
Experimental: (§3) Briefly, black 96-well plate was prepared with columns containing 200 μL/well of reagents required for determination of affinity. In general, Octet anti-human-Fc sensors were first placed in wells containing 1×Kinetics Buffer (PBS, 0.1% BSA, 0.02% Tween-20, pH 7.4) for 180 seconds to establish a baseline. Sensors were then transferred to wells containing […] anti-PD-L1 variants for 600 seconds to load the anti-human-Fc tips. Sensors were then placed in fresh 1×Kinetics Buffer for 180 seconds to establish a baseline. Association was then measured by incubating the sensors for 3 minutes in wells containing hPD-L1-His followed by transferring to wells containing 1×Kinetics Buffer for 10 minutes to measure dissociation. Sensors were then regenerated by 3X5 second incubations in Regeneration Buffer (10 mM Glycine, pH 1.5) followed by a 5 second incubation in 1×Kinetics Buffer each time. Regeneration was repeated before measurement of each association/dissociation cycle. […] All data were analyzed with Octet Data Analysis Software v.9.0 and representative of two independent experiments performed in duplicate.
as §2

human PD-L1 ECD-His [14] = biological target: T2, human PD-L1 ECD-His; test: BLI, ratio of KD to parental PL3#7-19
Experimental: as §3, §2

T2 sequence (Q9NZQ7 19-238): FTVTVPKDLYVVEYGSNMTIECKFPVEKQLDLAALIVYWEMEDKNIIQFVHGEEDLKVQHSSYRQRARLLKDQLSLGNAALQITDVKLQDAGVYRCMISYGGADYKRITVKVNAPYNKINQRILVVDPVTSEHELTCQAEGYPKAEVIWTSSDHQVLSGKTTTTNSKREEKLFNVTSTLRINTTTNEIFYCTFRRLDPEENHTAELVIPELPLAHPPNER
T1 sequence (Q9NZQ7 19-290): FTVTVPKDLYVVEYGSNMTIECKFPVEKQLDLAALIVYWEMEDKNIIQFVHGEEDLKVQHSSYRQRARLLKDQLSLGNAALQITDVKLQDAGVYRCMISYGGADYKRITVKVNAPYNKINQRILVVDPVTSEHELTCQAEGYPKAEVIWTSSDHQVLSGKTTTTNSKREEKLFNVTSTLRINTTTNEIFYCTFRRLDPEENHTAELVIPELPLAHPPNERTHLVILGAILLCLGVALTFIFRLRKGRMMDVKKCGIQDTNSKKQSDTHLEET
T3 sequence (G7PSE7 entry or part of it limits assumed): as the sequence (Q9NZQ7 19-238) above, with A33T, A34S, S62N, R68Q, Q82R, F173L, T185A, T192I, H215L counted along it
T4 sequence (Q9EP73 19-290): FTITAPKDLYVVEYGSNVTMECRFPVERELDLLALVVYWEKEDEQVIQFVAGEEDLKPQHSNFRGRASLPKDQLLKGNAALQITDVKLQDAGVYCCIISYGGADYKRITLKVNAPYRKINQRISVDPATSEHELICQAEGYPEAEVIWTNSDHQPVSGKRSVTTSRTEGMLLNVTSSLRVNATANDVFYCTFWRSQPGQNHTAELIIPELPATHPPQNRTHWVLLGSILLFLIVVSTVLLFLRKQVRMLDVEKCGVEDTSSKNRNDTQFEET

Binder | EC50 (read off the curve) [2] | EC50 (read off the curve) [3] | EC50 (read off the curve) [5] | Kd (human PD-L1 ECD-His [6]) | koff (human PD-L1 ECD-His [6]) | kon (human PD-L1 ECD-His [6]) | Improvement over ref-1 (human PD-L1 ECD-His [7]) | EC50 (read off the curve) [9] | EC50 (read off the curve) [12] | Kd (human PD-L1 ECD-His [13]) | koff (human PD-L1 ECD-His [13]) | kon (human PD-L1 ECD-His [13]) | Fold Difference (against parental variant) (human PD-L1 ECD-His [14]) | other results
anti-PD-L1 ref-2 (IgG2) (antibody, V domains shown) VH: EVQLVESGGGLVKPGGSLRLSCAASGFTFSSYGMSWVRQAPGKGLEWVATINSGGSNTYYPDSLKGRFTISRDNAKNSLYLQMNSLRAEDTAVYYCARHDGGAMDYWGQGTTVTVSS VL: DIQMTQSPSSLSASVGDRVTITCRASESIYSYLAWYQQKPGKAPKLLVYNTKTLPEGVPSRFSGSGSGTDFTLTISSLQPEDFATYYCQHHYGTPPWTFGQGTRLEIK | ~4 ng/mL | ~2 ng/mL | ~10 ng/mL | – | – | – | – | – | – | – | – | – | – | IC50 (read off the curve) [1]: ~200 ng/mL; EC50 (read off the curve) [4]: ~5 ng/mL
PL3#7-19 deglyco1 mtIgG1 (antibody, V domains shown, N297A mutant human IgG1; also called PL3#7-19 deglycol) VH: QVQLVQSGAEVKKPGSSVKVSCKASGGTFSSYPISWVRQAPGQGLEWMGRIIPILGIANYAQKFQGRVTITADKSTSTAYMELSSLRSEDTAVYYCARSRDGYAFGAFDVWGQGTLVTVSS VL: QSVVTQPPPVSGAPGQRVTISCTGSSSNIGGGYDVHWYQQLPGTAPKLLIYGNSNRPSGVPDRFSGSKSGTSASLAITGLQAEDEADYYCQTYDSSLSATVVFGGGTKLTVLG | – | – | – | – | – | – | – | – | ~200 ng/mL | 0.417 nM | 0.000162 s⁻¹ | 384000 M⁻¹ s⁻¹ | 1.48 fold | –
PL3#7-54 mtIgG1 (antibody, V domains shown, Antibody was biotinylated (NHS-PEG4-biotin, sites not specified) for the Octet assay of Table 11., N297A mutant human IgG1) VH: QVQLVQSGAEVKKPGSSVKVSCKASGGTFSSYPISWVRQAPGQGLEWMGRIIPILGIADYAQKFQGRVTITADKSTSTAYMELSSLRSEDTAVYYCARSRPGYAFGAFDIWGQGTLVTVSS VL: QSVVTQPPPVSGAPGQRVTISCTGSSSNIGQGYDVHWYQQLPGTAPKLLIYANSNRPSGVPDRFSGSKSGTSASLAITGLQAEDEADYYCQTYDSSLSARVVFGGGTKLTVLG | ~4 ng/mL | ~1 ng/mL | ~8 ng/mL | 0.772 nM | 0.000228 s⁻¹ | 307000 M⁻¹ s⁻¹ | 3.19 fold | ~50 ng/mL | – | – | – | – | – | –

More lines, main results first:

EC50 (read off the curve) [2] | EC50 (read off the curve) [3] | EC50 (read off the curve) [5] | Kd (human PD-L1 ECD-His [6]) | koff (human PD-L1 ECD-His [6]) | kon (human PD-L1 ECD-His [6]) | Improvement over ref-1 (human PD-L1 ECD-His [7]) | EC50 (read off the curve) [9] | EC50 (read off the curve) [12] | Kd (human PD-L1 ECD-His [13]) | koff (human PD-L1 ECD-His [13]) | kon (human PD-L1 ECD-His [13]) | Fold Difference (against parental variant) (human PD-L1 ECD-His [14]) | Binder | other results
~3 ng/mL | ~2 ng/mL | ~10 ng/mL | 2.46 nM | 0.000561 s⁻¹ | 221000 M⁻¹ s⁻¹ | 1 fold | ~30 ng/mL | – | – | – | – | – | PL2#3 mtIgG1 (N297A) (antibody, V domains shown, N297A mutant of human IgG1 Fc backbone) VH: EVQLVQSGGGLVKPGGSLRLSCAASGFTFSSYTMNWVRQAPGKGLEWVSSISSGSDYLYYADSVKGRFTISRDNAKNSLYLQMNSLRAEDTAVYYCARNELRWYPQAGAFDRWGQGTMVTVSS VL: QSVVTQPPSMSAAPGQRVTISCSGSSSYIESSYVGWYQQLPGTAPRLLIYDDDMRPSGIPDRFSGSKSGTSATLAITGLQTGDEADYYCEIWRSGLGGVFGGGTKLTVLS | Kd (human PD-L1 ECD-His [8]): 0.221 nM; koff (human PD-L1 ECD-His [8]): 0.000286 s⁻¹; kon (human PD-L1 ECD-His [8]): 1.33e+06 M⁻¹ s⁻¹; binding result [10]: no binding (tested: 5 µg/mL); Improvement over ref-1 (human PD-L1 ECD-His [11]): 2.86 fold
– | – | – | – | – | – | – | – | ~200 ng/mL | 0.356 nM | 0.000176 s⁻¹ | 506000 M⁻¹ s⁻¹ | 1.74 fold | PL3#7-19 deglyco3 mtIgG1 (antibody, V domains shown, N297A mutant human IgG1) VH: QVQLVQSGAEVKKPGSSVKVSCKASGGTFSSYPISWVRQAPGQGLEWMGRIIPILGIANYAQKFQGRVTITADKSTSTAYMELSSLRSEDTAVYYCARSRDGYAFGAFDVWGQGTLVTVSS VL: QSVVTQPPPVSGAPGQRVTISCTGSSSNIGGGYDVHWYQQLPGTAPKLLIYGNSQRPSGVPDRFSGSKSGTSASLAITGLQAEDEADYYCQTYDSSLSATVVFGGGTKLTVLG | –
– | – | – | – | – | – | – | – | ~200 ng/mL | 0.369 nM | 0.000151 s⁻¹ | 415000 M⁻¹ s⁻¹ | 1.68 fold | PL3#7-19 deglyco2 mtIgG1 (antibody, V domains shown, N297A mutant human IgG1) VH: QVQLVQSGAEVKKPGSSVKVSCKASGGTFSSYPISWVRQAPGQGLEWMGRIIPILGIANYAQKFQGRVTITADKSTSTAYMELSSLRSEDTAVYYCARSRDGYAFGAFDVWGQGTLVTVSS VL: QSVVTQPPPVSGAPGQRVTISCTGSSSNIGGGYDVHWYQQLPGTAPKLLIYGQSTRPSGVPDRFSGSKSGTSASLAITGLQAEDEADYYCQTYDSSLSATVVFGGGTKLTVLG | –

— patent US20190225691A1 (SHANGHAI HENLIUS BIOTECH, published 2019)
